The results in this text go back to patent publication US6613329.

In experiment [1] the target is Crotalus durissus terrificus venom. Kind of experiment: ELISA, venom-coated wells (5 µg/ml); 1:3125.
Experiment [2] has the same target. In words: ELISA, venom-coated wells; 1:62,500. (In an ELISA, binding on a coated surface is turned into a signal by an enzyme label.)
The target is the same in experiment [3]. In words: ELISA, venom-coated wells (5 µg/ml); 1:5.
Experiment [4] shares this target. In words: ELISA, venom-coated wells; 1:25.
Experiment [5] shares this target. In words: ELISA, venom-coated wells (5 µg/ml); 1:25.
The target is the same in experiment [6]. Kind of experiment: ELISA, venom-coated wells; 1:5.
Experiment [7] has the same target. In words: ELISA, venom-coated wells; 1:125.
For experiment [8] the target is unchanged. In words: ELISA, venom-coated wells; 1:3125.
The target is the same in experiment [9]. Kind of experiment: ELISA, venom-coated wells; 1:312,500.
Experiment [10] has the same target. In words: ELISA, venom-coated wells (5 µg/ml); 1:625.
Experiment [11] has the same target. In words: ELISA, venom-coated wells; 1:625.
Experiment [12] has the same target. Kind of experiment: ELISA, venom-coated wells (5 µg/ml); 1:125.
Experiment [13] has the same target. Kind of experiment: ELISA, venom-coated wells (5 µg/ml); undiluted.

As for “preimmune chicken IgY (PEG prep) (antibody)”, the ELISA absorbance in experiment [1] was 0.002 absorbance; in experiment [3], less than 0 absorbance; in experiment [4], 0.016 absorbance; in experiment [5], 0 absorbance; in experiment [6], less than 0 absorbance; in experiment [7], less than 0 absorbance. Also, the ELISA absorbance was less than 0 absorbance in experiment [8]; 0 absorbance in experiment [10]; less than 0 absorbance in [11]; 0.003 absorbance in [12]; 0.003 absorbance in experiment [13]. Also, the ELISA absorbance (absorbance (412 nm filter)) in experiment [2] amounted to 0.001; in experiment [9] it was 0.01.
